Target: the molecule itself
Assay: SDS-PAGE under reducing and nonreducing conditions with Western blot; 3-day culture medium of CHO-K1 transfectants separated under reducing or nonreducing conditions; immunodetection with anti-GFP antibodies; positions of dimer and monomer compared

B1: endoglin–GFP fusion protein (extracellular domain of human endoglin fused with EGFP, from pEGFP–N1/Eng.EC) (domain or fragment, UniProt P17813 26-586, looked up)
chain: ETVHCDLQPVGPERGEVTYTTSQVSKGCVAQAPNAILEVHVLFLEFPTGPSQLELTLQASKQNGTWPREVLLVLSVNSSVFLHLQALGIPLHLAYNSSLVTFQEPPGVNTTELPSFPKTQILEWAAERGPITSAAELNDPQSILLRLGQAQGSLSFCMLEASQDMGRTLEWRPRTPALVRGCHLEGVAGHKEAHILRVLPGHSAGPRTVTVKVELSCAPGDLDAVLILQGPPYVSWLIDANHNMQIWTTGEYSFKIFPEKNIRGFKLPDTPQGLLGEARMLNASIVASFVELPLASIVSLHASSCGGRLQTSPAPIQTTPPKDTCSPELLMSLIQTKCADDAMTLVLKKELVAHLKCTITGLTFWDPSCEAEDRGDKFVLRSAYSSCGMQVSASMISNEAVVNILSSSSPQRKKVHCLNMDSLSFQLGLYLSPHFLQASNTIEPGQQSFVQVRVSPSVSEFLLQLDSCHLDLGPEGGTVELIQGRAAKGNCVSLLSPSPEGDPRFSFLLHFYTVPIPKTGTLSCTVALRPKTGSQDQEVHRTVFMRLNIISPDLSGCTSKG
notes: then a linker of 19 amino acids and 239 residues of GFP, 844 amino acids in all; Disulfide-linked dimer of ~275 kDa; glycosylated; also called Eng–GFP; source: CHO-K1, stably transfected with pEGFP–N1/Eng.EC, secreted, in culture medium; not shown: EGFP, C-terminal, kept
stoichiometry N: 2

From publication PMC8539536, “Generation of a Soluble Form of Human Endoglin Fused to Green Fluorescent Protein” (International Journal of Molecular Sciences, 2021)
